Molecular target: KSHV glycoprotein H/glycoprotein L (gH/gL) (Kaposi's sarcoma-associated herpesvirus (KSHV)) (UniProt F5HAK9)
Sequence of UniProt F5HAK9 (F5HAK9 whole entry, looked up): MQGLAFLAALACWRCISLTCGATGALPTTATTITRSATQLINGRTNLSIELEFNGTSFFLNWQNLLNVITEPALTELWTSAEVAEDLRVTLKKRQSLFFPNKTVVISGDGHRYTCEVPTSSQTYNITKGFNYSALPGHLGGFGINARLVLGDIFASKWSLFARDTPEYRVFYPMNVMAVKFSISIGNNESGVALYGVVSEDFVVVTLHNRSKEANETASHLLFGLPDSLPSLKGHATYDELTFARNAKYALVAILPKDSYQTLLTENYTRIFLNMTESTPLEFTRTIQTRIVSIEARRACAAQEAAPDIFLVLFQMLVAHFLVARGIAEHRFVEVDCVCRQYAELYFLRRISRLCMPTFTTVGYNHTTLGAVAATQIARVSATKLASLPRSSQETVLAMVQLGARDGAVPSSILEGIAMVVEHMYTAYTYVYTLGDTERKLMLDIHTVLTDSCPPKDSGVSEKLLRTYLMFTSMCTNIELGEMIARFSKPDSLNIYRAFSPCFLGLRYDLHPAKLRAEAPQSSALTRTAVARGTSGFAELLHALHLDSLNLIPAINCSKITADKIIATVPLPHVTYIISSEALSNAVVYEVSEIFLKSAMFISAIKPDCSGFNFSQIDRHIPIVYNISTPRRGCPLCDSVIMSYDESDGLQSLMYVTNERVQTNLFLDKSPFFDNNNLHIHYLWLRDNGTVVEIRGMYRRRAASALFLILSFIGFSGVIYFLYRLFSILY

Soluble EphA4-Fc (from UniProt P54764 20-547) (Fc fusion)
virus-free cell-cell fusion (luciferase): CHO-K1 cells with EBV gB and KSHV gH/gL overlaid with HEK293T cells overexpressing membrane EphA4, compared with cells overexpressing EphA2 (% more fusion than with EphA2): 33

Source: PMC6381284
